Positions of bridges follow the written chain, without caps; N, C: chain ends. Non-standard residues stand in square brackets, D forms with d. dPhe(3,4,5-F3) = N[C@H](Cc1cc(F)c(F)c(F)c1)C(=O)O; dPhe(4-CN) = N#Cc1ccc(C[C@@H](N)C(=O)O)cc1; dPhe(3-Me) = Cc1cccc(C[C@@H](N)C(=O)O)c1; dPhe(2-Cl) = N[C@H](Cc1ccccc1Cl)C(=O)O; dPhe(2-Me) = Cc1ccccc1C[C@@H](N)C(=O)O; dPhe(4-F) = N[C@H](Cc1ccc(F)cc1)C(=O)O; dPhe(2-F) = N[C@H](Cc1ccccc1F)C(=O)O; Orn = NCCC[C@H](N)C(=O)O
Assays:
[1] = biological target: T1, human melanocortin-4 receptor (human, UniProt P32245 1-332); assay: [I125]-NDP-α-MSH competition, hMC4-R HEK-293 membranes
T1 construct: whole, on cells; functional assay: HEK293-T-REx-MC4-R cells induced with 0.1 or 10 ng/mL doxycycline; also called hMC4-R; MC4-R
Procedure: A competitive inhibition binding assay was performed for exemplified peptides according to the invention using membrane homogenates prepared from HEK-293 cells that express recombinant hMC4-R, hMC3-R, or hMC5-R, and from B-16 mouse melanoma cells (containing endogenous MC1-R). In some instances, HEK-293 cells that express recombinant hMC1-R were employed. Assays were performed in 96 well GF/B Millipore multiscreen filtration plates (MAFB NOB10) pre-coated with 0.5% bovine serum albumin (Fraction V). […] After incubation for 60 minutes at 37° C., the assay mixture was filtered and the membranes washed three times with ice-cold buffer. Filters were dried and counted in a gamma counter for bound radioactivity. […] Each assay was conducted in triplicate and the actual mean values are described, with results less than 0% reported as 0%. Ki values for test peptides of the present invention were determined using Graph-Pad Prism® curve-fitting software.

[2] = biological target: T1, human melanocortin-4 receptor; assay: cell-based or functional assay

T1 sequence (P32245 whole entry): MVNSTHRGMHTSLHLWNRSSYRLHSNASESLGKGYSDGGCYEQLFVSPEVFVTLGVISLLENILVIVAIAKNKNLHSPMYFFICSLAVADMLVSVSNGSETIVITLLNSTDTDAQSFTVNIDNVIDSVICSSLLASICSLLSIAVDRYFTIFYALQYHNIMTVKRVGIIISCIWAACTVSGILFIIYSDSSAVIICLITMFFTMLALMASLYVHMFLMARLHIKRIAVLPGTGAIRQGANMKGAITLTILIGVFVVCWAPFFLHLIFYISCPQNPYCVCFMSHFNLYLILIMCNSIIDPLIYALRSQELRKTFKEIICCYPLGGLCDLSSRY

Ac-REV[dPhe(4-CN)]RW[Orn]-NH2 (lactam 2-7, also called No. 42) [Ac-Arg-cyclo(Glu-Val-D-Phe(4-CN)-Arg-Trp-Orn)-NH2]
Ki [1]: 6 nM
EC50, cAMP, 10 ng/mL Doxycycline [2]: 0.5 nM
Intrinsic Activity, cAMP, 0.1 ng/mL Doxycycline [2]: 9%
Intrinsic Activity, cAMP, 10 ng/mL Doxycycline [2]: 84%

Ac-REQ[dPhe(4-CN)]RW[Orn]-NH2 (lactam 2-7; also: acetate salt, acetate salt form; also called Ex 46) [Ac-Arg-cyclo(Glu-Gln-D-Phe(4-CN)-Arg-Trp-Orn)-NH2]
Ki [1]: 4 nM
EC50, cAMP, 0.1 ng/mL Doxycycline [2]: 0.666 nM
EC50, cAMP, 10 ng/mL Doxycycline [2]: 0.173 nM
Intrinsic Activity, cAMP, 0.1 ng/mL Doxycycline [2]: 40%
Intrinsic Activity, cAMP, 10 ng/mL Doxycycline [2]: 97%

Ac-REQ[dPhe(2-F)]RW[Orn]-NH2 (lactam 2-7, also called No. 59) [Ac-Arg-cyclo(Glu-Gln-D-Phe(2-F)-Arg-Trp-Orn)-NH2]
Ki [1]: 7 nM
EC50, cAMP, 0.1 ng/mL Doxycycline [2]: 0.6 nM
EC50, cAMP, 10 ng/mL Doxycycline [2]: 0.1 nM
Intrinsic Activity, cAMP, 0.1 ng/mL Doxycycline [2]: 90%
Intrinsic Activity, cAMP, 10 ng/mL Doxycycline [2]: 98%

Ac-R[Orn]N[dPhe(4-F)]RWE-NH2 (lactam 2-7, also called No. 70) [Ac-Arg-cyclo(Orn-Asn-D-Phe(4-F)-Arg-Trp-Glu)-NH2]
Ki [1]: 3 nM
EC50, cAMP, 0.1 ng/mL Doxycycline [2]: 0.4 nM
EC50, cAMP, 10 ng/mL Doxycycline [2]: 0.1 nM
Intrinsic Activity, cAMP, 0.1 ng/mL Doxycycline [2]: 64%

Ac-R[Orn]Q[dPhe(2-Cl)]RWE-NH2 (lactam 2-7) [Ac-Arg-cyclo(Orn-Gln-D-Phe(2-Cl)-Arg-Trp-Glu)-NH2]
Ki [1]: 4 nM
EC50, cAMP, 0.1 ng/mL Doxycycline [2]: 0.39 nM
EC50, cAMP, 10 ng/mL Doxycycline [2]: 0.07 nM
Intrinsic Activity, cAMP, 0.1 ng/mL Doxycycline [2]: 83%
Intrinsic Activity, cAMP, 10 ng/mL Doxycycline [2]: 101%

Ac-R[Orn]Q[dPhe(2-Me)]RWE-NH2 (lactam 2-7) [Ac-Arg-cyclo(Orn-Gln-D-Phe(2-Me)-Arg-Trp-Glu)-NH2]
EC50, cAMP, 0.1 ng/mL Doxycycline [2]: 0.575 nM
EC50, cAMP, 10 ng/mL Doxycycline [2]: 0.053 nM
Intrinsic Activity, cAMP, 0.1 ng/mL Doxycycline [2]: 81%
Intrinsic Activity, cAMP, 10 ng/mL Doxycycline [2]: 104%

Ac-R[Orn]Q[dPhe(3,4,5-F3)]RWE-NH2 (lactam 2-7) [Ac-Arg-cyclo(Orn-Gln-D-Phe(3,4,5-triF)-Arg-Trp-Glu)-NH2]
EC50, cAMP, 0.1 ng/mL Doxycycline [2]: 0.45 nM
EC50, cAMP, 10 ng/mL Doxycycline [2]: 0.14 nM
Intrinsic Activity, cAMP, 0.1 ng/mL Doxycycline [2]: 47%
Intrinsic Activity, cAMP, 10 ng/mL Doxycycline [2]: 100%

Ac-R[Orn]Q[dPhe(4-CN)]RWE-NH2 (lactam 2-7, also called No. 94) [Ac-Arg-cyclo(Orn-Gln-D-Phe(4-CN)-Arg-Trp-Glu)-NH2]
Ki [1]: 0.9 nM
EC50, cAMP, 0.1 ng/mL Doxycycline [2]: 0.24 nM
EC50, cAMP, 10 ng/mL Doxycycline [2]: 0.09 nM
Intrinsic Activity, cAMP, 0.1 ng/mL Doxycycline [2]: 32%
Intrinsic Activity, cAMP, 10 ng/mL Doxycycline [2]: 92%

B1: Ac-Arg-cyclo(Orn-Pro-D-Phe(2-F)-Arg-Trp-Glu)-NH2 (peptide)
peptide: Ac-R[Orn]P[dPhe(2-F)]RWE-NH2
modifications: lactam 2-7
SMILES: CC(=O)N[C@@H](CCCNC(=N)N)C(=O)N[C@H]1CCCNC(=O)CC[C@@H](C(N)=O)NC(=O)[C@H](Cc2c[nH]c3ccccc23)NC(=O)[C@H](CCCNC(=N)N)NC(=O)[C@@H](Cc2ccccc2F)NC(=O)[C@@H]2CCCN2C1=O
Ki [1]: 7 nM
EC50, cAMP, 0.1 ng/mL Doxycycline [2]: 3 nM
EC50, cAMP, 10 ng/mL Doxycycline [2]: 0.15 nM
Intrinsic Activity, cAMP, 0.1 ng/mL Doxycycline [2]: 35%
Intrinsic Activity, cAMP, 10 ng/mL Doxycycline [2]: 94%

Ac-R[Orn]N[dPhe(3-Me)]RWE-NH2 (lactam 2-7, also called No. 72) [Ac-Arg-cyclo(Orn-Asn-D-Phe(3-Me)-Arg-Trp-Glu)-NH2]
Ki [1]: 4 nM
EC50, cAMP, 0.1 ng/mL Doxycycline [2]: 3 nM
EC50, cAMP, 10 ng/mL Doxycycline [2]: 0.35 nM
Intrinsic Activity, cAMP, 0.1 ng/mL Doxycycline [2]: 11%

Ac-R[Orn]N[dPhe(3,4,5-F3)]RWE-NH2 (lactam 2-7) [Ac-Arg-cyclo(Orn-Asn-D-Phe(3,4,5-triF)-Arg-Trp-Glu)-NH2]
EC50, cAMP, 10 ng/mL Doxycycline [2]: 0.235 nM
Intrinsic Activity, cAMP, 0.1 ng/mL Doxycycline [2]: 24%
Intrinsic Activity, cAMP, 10 ng/mL Doxycycline [2]: 100%

B2: Ac-Arg-cyclo(Glu-Gln-D-Phe(3,4,5-triF)-Arg-Trp-Orn)-NH2 (peptide)
peptide: Ac-REQ[dPhe(3,4,5-F3)]RW[Orn]-NH2
modifications: lactam 2-7
SMILES: CC(=O)N[C@@H](CCCNC(=N)N)C(=O)N[C@H]1CCC(=O)NCCC[C@@H](C(N)=O)NC(=O)[C@H](Cc2c[nH]c3ccccc23)NC(=O)[C@H](CCCNC(=N)N)NC(=O)[C@@H](Cc2cc(F)c(F)c(F)c2)NC(=O)[C@H](CCC(N)=O)NC1=O
EC50, cAMP, 0.1 ng/mL Doxycycline [2]: 0.8 nM
EC50, cAMP, 10 ng/mL Doxycycline [2]: 0.1 nM
Intrinsic Activity, cAMP, 0.1 ng/mL Doxycycline [2]: 49%
Intrinsic Activity, cAMP, 10 ng/mL Doxycycline [2]: 100%

— patent US20100311648A1 (AstraZeneca / MedImmune, published 2010)
